T1: human common cytokine receptor γ-chain (IL-2Rγ) (human, UniProt P31785 23-262, limits assumed)
T1 construct: Recombinant human IL-2Rγ protein, coated (ELISA) or amine-coupled to a CM5 chip (SPR); also called hu IL-2R; CD132
T1 sequence: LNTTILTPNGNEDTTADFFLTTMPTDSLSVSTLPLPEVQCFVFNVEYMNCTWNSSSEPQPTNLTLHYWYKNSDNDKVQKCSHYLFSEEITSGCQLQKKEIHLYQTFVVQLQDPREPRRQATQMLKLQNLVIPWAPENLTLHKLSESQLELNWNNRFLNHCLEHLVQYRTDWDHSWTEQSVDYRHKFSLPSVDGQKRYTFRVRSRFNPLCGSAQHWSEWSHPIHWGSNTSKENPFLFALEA

T2: mouse common cytokine receptor γ-chain (IL-2Rγ) (mouse, UniProt P34902 23-263, limits assumed)
T2 construct: Recombinant mouse IL-2Rγ protein; also called mo IL-2R; mouse IL-2R gamma
T2 sequence (looked up): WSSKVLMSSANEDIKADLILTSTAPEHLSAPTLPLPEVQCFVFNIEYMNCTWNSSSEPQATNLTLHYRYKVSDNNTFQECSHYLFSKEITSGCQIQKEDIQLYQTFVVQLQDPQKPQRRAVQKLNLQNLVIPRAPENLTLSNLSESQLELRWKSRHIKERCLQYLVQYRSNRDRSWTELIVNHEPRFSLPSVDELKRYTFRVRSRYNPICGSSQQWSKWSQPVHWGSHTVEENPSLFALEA

T3: human IL-2Rα (human, UniProt P01589 22-240, limits assumed)
T3 construct: recombinant protein; also called hu IL-2R; human IL-2Ra
T3 sequence: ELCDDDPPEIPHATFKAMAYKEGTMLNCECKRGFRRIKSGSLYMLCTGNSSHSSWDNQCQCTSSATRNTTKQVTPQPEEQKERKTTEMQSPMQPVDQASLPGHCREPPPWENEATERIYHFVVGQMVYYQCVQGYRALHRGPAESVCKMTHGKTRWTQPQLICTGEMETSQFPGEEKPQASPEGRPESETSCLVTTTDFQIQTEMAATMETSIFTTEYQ

B1: FJ1427_P035MP04F12 (VHH)
VHH: QVQLQESGGGWVQVGESLRLSCVPSGRTFVSGIMGWFRQAPGKEREFVARIILNNNSTRYTDSVKGRFTISRDSAKNTMYLQMNTLRPEDTAVYYCAARDRYGSGNSLSPSAYDYWGQGTQVTVSS
notes: tested as periplasmic extract; also called Clone nr
B2: FJ1427_P035MP07C02 (VHH)
VHH: B1 VHH with Q1E, Q5V, V23A, A40T
notes: tested as periplasmic extract; also called Clone nr; 587
B3: FJ1427_P035MP07F01 (VHH)
VHH: QVQLVESGGGLVQAGGSLRLSCAASGRTLSRYAMGWFRQAPGKEREFVTANSWGGDTYYADSVQGRFTFSRDNAKNTVYLQMNSLQPEDTAVYYCAAAPTSFATTAYSSSNSYAYWGQGTQVTVSS
notes: as for B1
B4: FJ1427_P035MP07B01 (VHH)
VHH: B3 VHH with S70T
notes: as for B1
B5: FJ1427_P035MP07A05 (VHH)
VHH: B3 VHH with Q1E
notes: as for B1
B6: FJ1427_P035MP07H09 (VHH)
VHH: B3 VHH with T49A, A60T, Q64E, T77A, A114T
notes: as for B1
B7: FJ1427_P035MP07A10 (VHH)
VHH: B3 VHH with K43S, T49A, N51S, Y58F, Q64E, T77A, V92A, A103P
notes: as for B1
B8: FJ1427_P035MP07E07 (VHH)
VHH: B3 VHH with Q1E, K43S, T49A, N51S, Y58F, Q64E, T77A, V92A, A103P
notes: as for B1
B9: FJ1427_P035MP07G09 (VHH)
VHH: QVQLQESGGGLVQAGGSLRLSCAASGRTLSRVAMGWFRQAPGKEREFVAADSWGGDTFYADSVEGRFTFSRDNAKNAVYLQMNSLQPEDTAVYFCAGAPASFATTAYSSSNSYSYWGQGTQVTVSS
notes: tested as periplasmic extract; also called Clone nr; 647
B10: FJ1427_P035MP07A03 (VHH)
VHH: B9 VHH with Q1E, Q5V, V32Y, F47Y, A50I, A77E, F94Y, A100T, S114R
notes: as for B1
B11: FJ1427_P035MP07C04 (VHH)
VHH: B3 VHH with L11V
notes: as for B1
B12: FJ1427_P035MP07A06 (VHH)
VHH: B3 VHH with A14P
notes: as for B1
B13: FJ1427_P035MP07F08 (VHH)
VHH: B9 VHH with Q5V, V32D, F94Y, A100T, S114R
notes: tested as periplasmic extract; also called Clone nr; 638
B14: FJ1427_P035MP07F03 (VHH)
VHH: B3 VHH with A14T
notes: as for B1
B15: FJ1427_P035MP07A02 (VHH)
VHH: B3 VHH with T28A, Y32L, T49V, N51S, G55D, Y58F, Q64K, E88G, V124A
notes: as for B1
B16: FJ1427_P035MP07A01 (VHH)
VHH: B3 VHH with Q1E, G16D
notes: as for B1
B17: FJ1427_P035MP07A04 (VHH)
VHH: B3 VHH with A40G, T49A, N51D, A60D, Q64E, N73I, A74T, T77A
notes: as for B1
B18: FJ1427_P035MP07D04 (VHH)
VHH: B3 VHH with Q1E, A40G, T49A, N51D, A60D, Q64E, N73I, A74T, T77A
notes: as for B1
B19: FJ1427_P035MP05E08 (VHH)
VHH: EVQLVESGGGSVQAGGSLRLSCEASGPTLFSSYGMGWFRQAPGKKEREFVGAISRYGTYTSYADPVKDRFTISRDNAKSTVYLQMNNTKPEDTAVYYCAAYTYSGSFYSTVKTHHDEYHYWGQGTQVTVSS
notes: periplasmic extract; also called clone nr
B20: FJ1427_P035MP05D11 (VHH)
VHH: B19 VHH with E1Q, F70L, D75G
notes: as for B19
B21: FJ1427_P035MP05H01 (VHH)
VHH: EVQLVESGGGLVQAGGSLRLSCAASGITFNDHTMAWFRQAPGKEREFVAARDWSDIITRYASSVKGRFTISRDNAGNTGFLQMNSLRPEDTAVYYCAAREGGVVAGVRSGAPYDYWGQGTQVTVSS
notes: as for B19
B22: FJ1427_P035MP05H02 (VHH)
VHH: B21 VHH with S62G
notes: periplasmic extract; also called clone nr; 400
B23: FJ1427_P035MP05E11 (VHH)
VHH: EVQLVESGGGSVQAGGSLRLSCAASGRTLYSSYGMAWFRQAPGKERDFVGSISRYGTYTSYADSVKDRFTISRDNAKSTVYLQMNNTKPEDTAVYYCAAYTYSGSFYSTVKTHRDEYQYWGQGTQVTVSS
notes: as for B19
B24: FJ1427_P035MP05C04 (VHH)
VHH: B23 VHH with A23E, Y30F, A36G, D47E, S51A, Y55F, S64P, R114H, Q118R
notes: periplasmic extract; also called clone nr; 411
B25: FJ1427_P035MP05E03 (VHH)
VHH: B23 VHH with S11L
notes: as for B19
B26: FJ1427_P035MP05C07 (VHH)
VHH: B23 VHH with E1Q, A23E, Y30F, A36G, D47E, S51A, Y55F, S64P, R114H, Q118R
notes: periplasmic extract; also called 92-MP05C07
B27: FJ1427_P035MP05A07 (VHH)
VHH: B23 VHH with E1Q, S11L, V12A, G16A, D67G
notes: as for B19
B28: FJ1427_P035MP05B07 (VHH)
VHH: QLQLVESGGGLVQAGGSLRLSCAASGLTFDGYAIGWFRQASGKEREGVSYINGRDGSTFYADSVKGRFIISSDNAKNTVDLQMNSLKPDDAAVYYCAVDRLGSRGAYVSSWWRSPDMDLWGKGTLVTVSS
notes: as for B19

Changes are numbered by the printed parent chain.

The koff is a measure of how fast the partners let go of each other.

In one assay the target is T1, human common cytokine receptor γ-chain …. The experiment in a line: P.E. off-rate SPR. The protocol: (§1) SPR was performed to determine dissociation rates using Biacore 3000 instrument (GE Healthcare). Briefly, human and mouse IL-2R proteins were immobilized on carboxylmethyl dextran sensor chip (CM5) at approximately 2500 RUs using amine coupling in acetate buffer (GE Healthcare). The VHH-containing P.E. were loaded with a flow rate of 30 uL/min and the off-rates were measured over a 120s period.
Regarding B1, the koff came to 0.00714 s⁻¹.
The same measure, in the same setting: in the case of B2 it was 0.0186 s⁻¹.
On the same count and under the same terms, in the case of B3 it was 0.00297 s⁻¹; in that of B4, 0.00235 s⁻¹.
On the same count and under the same terms, in the case of B5 it was 0.00323 s⁻¹; in that of B6, 0.00346 s⁻¹.
B7 registered a koff of 0.00242 s⁻¹.
On the same count and under the same terms, in the case of B8 it was 0.00225 s⁻¹.
On the same count and under the same terms, in the case of B9 it was 0.0024 s⁻¹.
Same read-out and setting: in the case of B10 it was 0.00174 s⁻¹; in that of B11, 0.00267 s⁻¹; in that of B12, 0.00273 s⁻¹.
The molecule B13 returned a koff of 0.00185 s⁻¹.
Same read-out and setting: in the case of B14 it was 0.00321 s⁻¹.
The same measure, in the same setting: in the case of B15 it was 0.00176 s⁻¹; in that of B16, 0.00151 s⁻¹; in that of B17, 0.00126 s⁻¹.
With B18, the dissociation rate constant (koff) was 0.00243 s⁻¹.

Another assay concerns the target T2, mouse common cytokine receptor γ-chain …. The experiment in a line: P.E. off-rate SPR. The protocol: as §1
The molecule B3 displayed a koff of 0.0855 s⁻¹.
Still for that read-out and setting: in the case of B5 it was 0.127 s⁻¹; in that of B10, 0.00795 s⁻¹; in that of B12, 0.109 s⁻¹.
The same measure, in the same setting: in the case of B15 it was 0.0116 s⁻¹.

The next assay concerns the target T1, human common cytokine receptor γ-chain …. Put plainly: P.E. binding ELISA. How it is done:
(§2) In a binding ELISA, human or mouse IL-2Rα, IL-2Rβ and IL-2Rγ proteins were coated directly on maxisorp microtiter plates overnight at 4° C. Free binding sites were blocked using 4% Marvel in PBS for 1 hour. Next, 1:5 dilution of P.E. in 1% Marvel/PBS were added to wells and incubated for 1 hour. […] Binding specificity was determined based on O.D. at 450 nm values compared to negative controls.
For orientation: ELISA stands for enzyme-linked immunosorbent assay.
For B1, the “PE binding ELISA OD” value was determined as 2.02 OD450 nm.
The same measure, in the same setting: in the case of B2 it was 0.48 OD450 nm.
As to B3, the “PE binding ELISA OD” value came out at 0.556 OD450 nm.
On the same count and under the same terms, in the case of B4 it was 0.518 OD450 nm; in that of B5, 0.973 OD450 nm.
Same read-out and setting: in the case of B6 it was 1.11 OD450 nm; in that of B7, 0.759 OD450 nm.
Turning to B8, the “PE binding ELISA OD” value was 0.359 OD450 nm.
B9: the “PE binding ELISA OD” value was found to be 1.14 OD450 nm.
The same measure, in the same setting: in the case of B10 it was 1.69 OD450 nm.
The same measure, in the same setting: in the case of B11 it was 0.406 OD450 nm; in that of B12, 1.12 OD450 nm; in that of B13, 1.24 OD450 nm.
On the same count and under the same terms, in the case of B14 it was 0.497 OD450 nm; in that of B15, 0.829 OD450 nm.
For B16, the “PE binding ELISA OD” value amounted to 0.478 OD450 nm.
On the same count and under the same terms, in the case of B17 it was 0.507 OD450 nm; in that of B18, 0.792 OD450 nm.

For the next assay, the target named is T2, mouse common cytokine receptor γ-chain …. Put plainly: P.E. binding ELISA. How it is done:
as §2
Take B3: the “PE binding ELISA OD” value is 0.047 OD450 nm.
The same measure, in the same setting: in the case of B5 it was 0.046 OD450 nm.
Same read-out and setting: in the case of B10 it was 0.869 OD450 nm; in that of B12, 0.047 OD450 nm; in that of B15, 0.063 OD450 nm.

In the next assay the target is T3, human IL-2Rα. The experiment in a line: ELISA, P.E. on coated antigen. How it is done:
as §2
Regarding B19, the “OD (PE binding ELISA)” value was 2.33 OD450 nm.
Same read-out and setting: in the case of B20 it was 2.54 OD450 nm.
On the same count and under the same terms, in the case of B21 it was 2.62 OD450 nm; in that of B22, 2.29 OD450 nm; in that of B23, 2.35 OD450 nm.
Still for that read-out and setting: in the case of B24 it was 1.83 OD450 nm; in that of B25, 2.48 OD450 nm.
As to B26, the “OD (PE binding ELISA)” value was 1.73 OD450 nm.
On the same count and under the same terms, in the case of B27 it was 2.43 OD450 nm.
The same measure, in the same setting: in the case of B28 it was 1.77 OD450 nm.

The next assay has as its target T3, human IL-2Rα. The experiment in a line: SPR, P.E. on immobilised antigen. How it is done:
as §1
(In SPR one partner is held on a chip, and binding of the other changes the refractive index at the surface.)
For the molecule B19, the off-rate (koff) came out at 0.000214 s⁻¹.
Still for that read-out and setting: in the case of B20 it was 0.000662 s⁻¹.
As for B21, the koff came to 0.000141 s⁻¹.
On the same count and under the same terms, in the case of B22 it was 0.000141 s⁻¹.
Same read-out and setting: in the case of B23 it was 0.001 s⁻¹; in that of B24, 0.000905 s⁻¹; in that of B25, 0.000772 s⁻¹.
The molecule B26 came in with a koff of 0.00141 s⁻¹.
Same read-out and setting: in the case of B27 it was 0.00104 s⁻¹; in that of B28, 0.00195 s⁻¹.

The record behind these values is patent US20240409645A1 (DUALYX, published 2024).
